From patent US20080152653A1

Molecular target: mouse α4 integrin (mouse) (UniProt Q00651)
Assay: cell-based or functional assay

Sequence of UniProt Q00651 (Q00651 41-1039, form in doubt, chain 1 of 2): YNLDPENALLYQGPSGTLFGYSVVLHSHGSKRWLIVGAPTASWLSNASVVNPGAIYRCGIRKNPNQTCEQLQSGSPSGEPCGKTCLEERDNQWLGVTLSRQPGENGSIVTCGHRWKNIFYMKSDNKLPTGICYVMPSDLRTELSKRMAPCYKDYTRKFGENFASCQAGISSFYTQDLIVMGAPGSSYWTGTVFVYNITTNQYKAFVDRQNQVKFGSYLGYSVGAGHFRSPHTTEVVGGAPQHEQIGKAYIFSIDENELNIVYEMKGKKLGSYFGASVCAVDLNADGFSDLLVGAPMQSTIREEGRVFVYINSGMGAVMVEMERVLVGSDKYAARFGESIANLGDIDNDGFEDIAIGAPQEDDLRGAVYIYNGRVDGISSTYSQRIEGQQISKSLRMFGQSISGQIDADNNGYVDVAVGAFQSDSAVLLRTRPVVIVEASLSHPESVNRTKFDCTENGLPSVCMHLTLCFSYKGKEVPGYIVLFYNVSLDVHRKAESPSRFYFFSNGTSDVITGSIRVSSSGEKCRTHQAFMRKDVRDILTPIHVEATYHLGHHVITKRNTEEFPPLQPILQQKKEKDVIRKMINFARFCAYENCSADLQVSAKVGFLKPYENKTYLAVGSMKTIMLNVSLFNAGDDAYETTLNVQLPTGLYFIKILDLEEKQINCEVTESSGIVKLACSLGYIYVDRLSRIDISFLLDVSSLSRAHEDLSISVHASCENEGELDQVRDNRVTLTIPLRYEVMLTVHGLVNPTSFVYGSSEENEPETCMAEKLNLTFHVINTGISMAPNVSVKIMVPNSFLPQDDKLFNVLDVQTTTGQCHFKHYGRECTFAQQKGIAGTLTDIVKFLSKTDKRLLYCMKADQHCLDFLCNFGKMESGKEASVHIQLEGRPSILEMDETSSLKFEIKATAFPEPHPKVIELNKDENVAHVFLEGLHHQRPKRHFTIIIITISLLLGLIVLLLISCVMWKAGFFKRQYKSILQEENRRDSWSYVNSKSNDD
Sequence of UniProt Q00651 (chain, as listed by the source, form in doubt, chain 2 of 2): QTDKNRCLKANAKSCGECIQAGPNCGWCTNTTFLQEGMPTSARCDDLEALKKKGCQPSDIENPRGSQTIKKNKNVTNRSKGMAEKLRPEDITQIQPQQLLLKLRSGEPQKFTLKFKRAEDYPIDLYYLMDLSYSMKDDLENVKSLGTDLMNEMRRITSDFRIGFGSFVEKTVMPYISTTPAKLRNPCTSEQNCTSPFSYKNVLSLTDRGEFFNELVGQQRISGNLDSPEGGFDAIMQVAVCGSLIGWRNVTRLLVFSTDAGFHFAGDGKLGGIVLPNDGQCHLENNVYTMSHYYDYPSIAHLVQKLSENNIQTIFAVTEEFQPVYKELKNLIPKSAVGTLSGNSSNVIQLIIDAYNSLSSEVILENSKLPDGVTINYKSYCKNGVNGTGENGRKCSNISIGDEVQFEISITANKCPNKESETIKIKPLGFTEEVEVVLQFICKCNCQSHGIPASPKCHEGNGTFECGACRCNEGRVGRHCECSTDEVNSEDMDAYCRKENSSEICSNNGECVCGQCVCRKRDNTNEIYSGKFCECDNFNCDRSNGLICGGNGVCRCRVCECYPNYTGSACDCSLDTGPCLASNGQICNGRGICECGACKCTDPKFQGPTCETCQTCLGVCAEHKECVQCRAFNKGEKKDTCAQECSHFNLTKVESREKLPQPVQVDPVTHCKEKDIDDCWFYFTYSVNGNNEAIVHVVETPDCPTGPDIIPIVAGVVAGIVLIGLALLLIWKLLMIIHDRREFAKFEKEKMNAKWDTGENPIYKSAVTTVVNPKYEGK

inhibition of growth of B16-BL6 cells (Cell Counting Kit 8, O.D. 450), 10 µg/ml antibody: 20%
Substance: anti-α4 integrin antibody (clone R1-2) (Pharmingen)
